B1: CA141 (antibody, V domains shown)
VH: EVQLVESGGGLVKPGGSLRLSCAASGFTFSSYSMNWVRQAPGKGLEWVSSISSSSSYIYYADSVKGRFTISRDNAKNSLYLQMNSLRAEDTAVYYCARASENGDDAFDIWGQGTMVTVSS
VL: EIVLTQSPATLSLSPGERATLSCRASQSVSSYLAWYQQKPGQAPRLLIYDASNRATGIPARFSGSGSGTDFTLTISSLEPEDFAVYYCQQRSNWPPYTFGQGTKLEIK
B2: CA143 (antibody, V domains shown)
VH: EVQLVESGGGLVKPGGSLRLSCAASGFTFSSYSMNWVRQAPGKGLEWVSSISSSSSYIYYADSVKGRFTISRDNAKNSLYLQMNSLRAEDTAVYYCARDSLPAGDYFDYWGQGTLVTVSS
VL: DIQLTQSPSFLSASVGDRVTITCRASQGISSYLAWYQQKPGKAPKLLIYAASTLQSGVPSRFSGSGSGTEFTLTISSLQPEDFATYYCQQLNSYPQTTFGGGTKVEIK
B3: CA144 (antibody, V domains shown)
VH: EVQLVESGGGLVKPGGSLRLSCAASGFTFSSYSMNWVRQAPGKGLEWVSSISSSSSYIYYADSVKGRFTISRDNAKNSLYLQMNSLRAEDTAVYYCARDRVEMAFHFDYWGQGTLVTVSS
VL: not shown
B4: CA125 (antibody, V domains shown)
VH: EVQLVESGGGLVKPGGSLRLSCAASGFTFSSYSMNWVRQAPGKGLEWVSSISSSSSYIYYADSVKGRFTISRDNAKNSLYLQMNSLRAEDTAVYYCARVVDTAMGDAFDIWGQGTMVTVSS
VL: not shown
B5: CA149 (antibody, V domains shown)
VH: EVQLVESGGGLVKPGGSLRLSCAASGFTFSSYSMNWVRQAPGKGLEWVSSISSSSSYIYYADSVKGRFTISRDNAKNSLYLQMNSLRAEDTAVYYCARCAAGFVPDAFDIWGQGTMVTVSS
VL: not shown
B6: CA134 (antibody, V domains shown)
VH: EVQLVESGGGLVKPGGSLRLSCAASGFTFSSYSMNWVRQAPGKGLEWVSSISSSSSYIYYADSVKGRFTISRDNAKNSLYLQMNSLRAEDTAVYYCARVFGEQLVSFFDYWGQGTLVTVSS
VL: EIVMTQSPPGERATLSCRASQSVSSNLAWYQQKPGQAPRLLIYGASTRATGIPARFSGSGSGTEFTLTISSLQSEDFAVYYCQQYNNWPPWTFGQGTKVEIK
B7: CA120 (antibody, V domains shown)
VH: EVQLVESGGGLVQPGGSLRLSCVASGFTFSTYSMNWVRQAPGKGLEWVSYISSSSSTIYYADSVKGRFTISRDNAKNSLYLQMNSLRAEDTAVYYCARDPGWLSWFDPWGQGTLVTVSS
VL: RSLPAPWSLSPGERATLSCRASQSVSNSYLAWYQQKPGQAPRLLIYGASSRATGIPDRFSGSGSGTDFTLTISRLEPEDFAVYYCQQYGGSPRTFGQGTKVEIK
B8: CA132 (antibody, V domains shown)
VH: EVQLVESGGGLVQPGGSLRLSCVASGFTFSTYSMNWVRQAPGKGLEWVSYISSSSSTIYYADSVKGRFTISRDNAKNSLYLQMNSLRAEDTAVYYCARDPGWLSWFDPWGQGTLVTVSS
VL: EIVLTQSPPGERATLSCRASQSVSNSYLAWYQQKPGQAPRLLIYGASSRATGIPDRFSGSGSGTDFTLTISRLEPEDFAVYYCQQYGGSPRTFGQGTKVEIK
B9: CA137 (antibody, V domains shown)
VH: EVQLVESGGGLVQPGGSLRLSCVASGFTFSTYSMNWVRQAPGKGLEWVSYISSSSSTIYYADSVKGRFTISRDNAKNSLYLQMNSLRAEDTAVYYCARDPGWLSWFDPWGQGTLVTVSS
VL: not shown
B10: CA135 (antibody, V domains shown)
VH: EVQLVESGGGLVQPGGSLRLSCVASGFTFSTYSMNWVRQAPGKGLEWVSYISSSSSTIYYADSVKGRFTISRDNAKNSLYLQMNSLRAEDTAVYYCARDPGWLSWFDPWGQGTLVTVSS
VL: not shown
B11: CA133 (antibody, V domains shown)
VH: EVQLVESGGGLVQPGGSLRLSCVASGFTFSSYSMNWVRQAPGKGLEWVSYISSSSSTIYYADSVKGRFTISRDNAKNSLYLQMNSLRAEDTAVYYCARDPGWLSWFDPWGQGTLVTVSS
VL: not shown
B12: CA139 (antibody, V domains shown)
VH: not shown
VL: DIQMTQSPSSLSASVGDRVTITCRASQGISNYLAWFQQKPGKAPKSLIYAASSLQSGVPSKFSGSGSGTDFTLTISSLQPEDFATYYCQQYNSYPLTFGGGTKVEIK
B13: CA148 (antibody, V domains shown)
VH: QVQLVQSGAEVKKPGASVKVSCKASGYTFTSYGISWVRQAPGQGLEWMGWISAYNGNTNYAQKLQGRVTMTTDTSTSTAYMELRSLRSDDTAVYYCARTPGDEYYYYYYMDVWGKGTTVTVSS
VL: EIVLTQSPATLSLSPGERATLSCRASQSVSSYLAWYQQKPGQAPRLLIYDASNRATGIPARFSGSGSGTDFTLTISSLEPEDFAVYYCQQRSNWPRTFGQGTKLEIK
B14: CA146 (antibody, V domains shown)
VH: QVQLVESGGGVVQPGRSLRLSCAASGFTFSSYGMHWVRQAPGKGLEWVAVISYDGSNKYYADSVKGRFTISRDNSKNTLYLQMNSLRAEDTAVYYCAKDRYSIVGATSNGMDVWGQGTTVTVSS
VL: not shown
B15: CA159 (antibody, V domains shown)
VH: QVQLVQSGAEVKKPGSSVKVSCKASGGTFSSYAISWVRQAPGQGLEWMGGIIPIFGTANYAQKFQGRVTITADESTSTAYMELSSLRSEDTAVYYCARASYYYYYMDVWGKGTTVTVSS
VL: not shown
B16: CA124 (antibody, V domains shown)
VH: QVQLVESGGGLVKPGGSLRLSCAASGFTFSDYYMSWIRQAPGKGLEWVSYISSSGSTIYYADSVKGRFTISRDNAKNSLYLQMNSLRAEDTAVYYCASGFSSWGADDYWGQGTLVTVSS
VL: HPDDPVSSSLSASVGDRVTITCRASQGISNYLAWFQQKPGKAPKSLIYAASSLQSGVPSKFSGSGSGTDFTLTISSLQPEDFATYYCQQYNSYPLTFGQGTKLEIK
B17: CA155 (antibody, V domains shown)
VH: QVQLVESGGGLVKPGGSLRLSCAASGFTFSDYYMSWIRQAPGKGLEWVSYISSSSSYTNYADSVKGRFTISRDNAKNSLYLQMNSLRAEDTAVYYCARGGIYYYYYMDVWGKGTTVTVSS
VL: not shown
B18: CA123 (antibody, V domains shown)
VH: EVQLVESGGGLVQPGGSLRLSCAASGFTFSSYWMHWVRQAPGKGLVWVSRINSDGSSTSYADSVKGRFTISRDNAKNTLYLQMNSLRAEDTAVYYCARDQGSTSCYYCYYGMDVWGQGTTVTVSS
VL: not shown
B19: CA150 (antibody, V domains shown)
VH: QVQLVQSGAEVKKPGSSVKVSCKASGGTFSSYAISWVRQAPGQGLEWMGGIIPIFGTANYAQKFQGRVTITADESTSTAYMELSSLRSEDTAVYYCASFPNCSSTSCYYYYYMDVWGKGTTVTVSS
VL: QSALTQPASVSGSPGQSITISCTGTSSDVGGYNYVSWYQQHPGKAPKLMIYDVSNRPSGVSNRFSGSKSGNTASLTISGLQAEDEADYYCSSYTSSSTRDVVFGGGTKLTVL
B20: CA131 (antibody, V domains shown)
VH: QLQLQESGSGLVKPSQTLSLTCAVSGGSISSGGYSWSWIRQPPGKGLEWIGYIYHSGSTYYNPSLKSRVTISVDRSKNQFSLKLSSVTAADTAVYYCATGGGHKELGGWGQGTLVTVSS
VL: not shown
B21: CA156 (antibody, V domains shown)
VH: EVQLVESGGGLVKPGGSLRLSCAASGFTFSSYSMNWVRQAPGKGLEWVSSISSSSSYIYYADSVKGRFTISRDNAKNSLYLQMNSLRAEDTAVYYCARDFSGDFWSGYDYWGQGTLVTVSS
VL: not shown
B22: CA154 (antibody, V domains shown)
VH: not shown
VL: AIRMTQSPSSFSASTGDRVTITCRASQGISSYLAWYQQKPGKAPKLLIYAASTLQSGVPSRFSGSGSGTDFTLTISCLQSEDFATYYCQQYYSYALTFGGGTKVEIK
B23: CA157 (antibody, V domains shown)
VH: EVQLVESGGGLVQPGGSLRLSCAASGFTFSSYEMNWVRQAPGKGLEWVSYISSSGSTIYYADSVKGRFTISRDNAKNSLYLQMNSLRAEDTAVYYCARGYCSSTSCPFDYWGQGTLVTVSS
VL: not shown
B24: CA128 (antibody, V domains shown)
VH: QVQLVESGGGLVKPGGSLRLSCAASGFTFSDYYMSWIRQAPGKGLEWVSYISSSGSTIYYADSVKGRFTISRDNAKNSLYLQMNSLRAEDTAVYYCARDSGSFVGVFDYWGQGTLVTVSS
VL: not shown
B25: CA145 (antibody, V domains shown)
VH: QVQLVESGGGLVKPGGSLRLSCAASGFTFSDYYMSWIRQAPGKGLEWVSYISSSGSTIYYADSVKGRFTISRDNAKNSLYLQMNSLRAEDTAVYYCARDVLELRWWFDPWGQGTLVTVSS
VL: not shown
B26: CA151 (antibody, V domains shown)
VH: RCSCRSRAPGLVKPSETLSLTCTVSGGSVSSGSYYWSWIRQPPGKGLEWIGYIYYSGSTNYNPSLKSRVTISVDTSKNQFSLKLSSVTAADTAVYYCASFTRMSPYAFDIWGQGTMVTVSS
VL: not shown
B27: CA153 (antibody, V domains shown)
VH: EVQLVESGGGLVKPGGSLRLSCAASGFTFSSYSMNWVRQAPGKGLEWVSSISSSSSYIYYADSVKGRFTISRDNAKNSLYLQMNSLRAEDTAVYYCARLTYYYYMDVWGKGTTVTVSS
VL: not shown
B28: CA158 (antibody, V domains shown)
VH: EVQLVESGGGLVKPGGSLRLSCAASGFTFSSYSMNWVRQAPGKGLEWVSSISSSSSYIYYADSVKGRFTISRDNAKNSLYLQMNSLRAEDTAVYYCARMYQLAAIDYWGQGTLVTVSS
VL: not shown

We go through 28 molecules from PMC8960791 (Communications Biology, 2022).

In this experiment the target is soluble HLA-E-VL9, HLA-E*01:03 heavy chain refolded with β2-microglobulin and synthetic VL9 peptide (Homo sapiens, HLA-E*01:03, strain).
With B1, the binding result was “binds”. Still for that read-out and setting: with B2 the entry was “binds”. As to B3, the binding result is reported as “binds”. Still for that read-out and setting: the result for B4 reads “binds”. Turning to B5, the binding result is “binds”. Still for that read-out and setting: with B6 the entry was “binds”; with B7, “binds”; with B8, “binds”. Same read-out and setting: the result for B9 reads “binds”; that for B10, “binds”.

On to B11, for which the binding result is recorded as “binds”. Same read-out and setting: the result for B12 reads “binds”; that for B13, “binds”; that for B14, “binds”. Same read-out and setting: the result for B15 reads “binds”; that for B16, “binds”.

Consider B17, for which the binding result is reported as “binds”. With B18, binding was characterised by a dissociation constant (Kd) of 3.8 µM. As to B19, the binding result is recorded as “binds”. Take B20: the binding result was “binds”. On the same count and under the same terms, with B21 the entry was “binds”.

Take B22: the binding result is listed as “binds”. Turning to B23, the binding result is “binds”. Same read-out and setting: the result for B24 reads “binds”; that for B25, “binds”; that for B26, “binds”. Take B27: the binding result is “binds”. Still for that read-out and setting: the result for B28 reads “binds”.

For orientation: Kd means the concentration at which binding is half-saturated. A higher Kd goes with weaker binding.
